Common to all, as to assay: TurboID proximity labelling, streptavidin pull-down, LC-MS
Common to all, as to conditions: U2OS stable cell lines; 50 μM biotin for 2 h; read off a plot

In assay [1] the target is TRIM33 (UniProt Q9UPN9).
The target in assay [2] is DAXX.
In assay [3] the target is XAB2 (UniProt Q9HCS7).
In assay [4] the target is ZNF280A.
Assay [5] deals with HSPA8.
Assay [6] has as its target EXOSC9.
In assay [7] the target is RAD54L2.
The target in assay [8] is GATAD2B (UniProt Q8WXI9).
The target of assay [9] is TRIM24 (UniProt O15164).
Assay [10] deals with PIAS2 (UniProt O75928).
For assay [11], the target named is SIMC1.
Assay [12] deals with RBM22.
In assay [13] the target is PIAS3 (UniProt Q9Y6X2).
In assay [14] the target is IRF2BP2 (UniProt Q7Z5L9).
For assay [15], the target named is FUS.
The target of assay [16] is PIAS4 (UniProt Q8N2W9).
In assay [17] the target is PIAS1 (UniProt O75925).
The target in assay [18] is ZNF280B (UniProt Q86YH2).
Assay [19] has as its target SNW1 (UniProt Q13573).

Sequence of UniProt O75925 (O75925 whole entry): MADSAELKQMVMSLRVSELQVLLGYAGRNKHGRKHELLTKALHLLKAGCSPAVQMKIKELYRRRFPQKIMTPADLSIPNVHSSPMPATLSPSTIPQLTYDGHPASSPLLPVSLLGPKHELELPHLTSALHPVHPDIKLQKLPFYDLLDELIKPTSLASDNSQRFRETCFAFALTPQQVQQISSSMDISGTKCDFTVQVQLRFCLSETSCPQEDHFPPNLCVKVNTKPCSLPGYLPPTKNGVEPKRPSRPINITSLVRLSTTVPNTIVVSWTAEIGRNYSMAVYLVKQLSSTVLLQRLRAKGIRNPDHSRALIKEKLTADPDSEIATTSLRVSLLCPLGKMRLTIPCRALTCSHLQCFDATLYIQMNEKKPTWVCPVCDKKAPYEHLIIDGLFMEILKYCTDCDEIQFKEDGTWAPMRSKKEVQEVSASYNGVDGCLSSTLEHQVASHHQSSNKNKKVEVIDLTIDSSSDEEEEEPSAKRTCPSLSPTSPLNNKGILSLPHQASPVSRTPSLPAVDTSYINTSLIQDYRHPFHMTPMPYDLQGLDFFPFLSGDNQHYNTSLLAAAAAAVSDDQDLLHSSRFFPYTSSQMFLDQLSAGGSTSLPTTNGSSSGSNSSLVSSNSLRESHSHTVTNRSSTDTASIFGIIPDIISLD
Sequence of UniProt Q9HCS7 (Q9HCS7 whole entry): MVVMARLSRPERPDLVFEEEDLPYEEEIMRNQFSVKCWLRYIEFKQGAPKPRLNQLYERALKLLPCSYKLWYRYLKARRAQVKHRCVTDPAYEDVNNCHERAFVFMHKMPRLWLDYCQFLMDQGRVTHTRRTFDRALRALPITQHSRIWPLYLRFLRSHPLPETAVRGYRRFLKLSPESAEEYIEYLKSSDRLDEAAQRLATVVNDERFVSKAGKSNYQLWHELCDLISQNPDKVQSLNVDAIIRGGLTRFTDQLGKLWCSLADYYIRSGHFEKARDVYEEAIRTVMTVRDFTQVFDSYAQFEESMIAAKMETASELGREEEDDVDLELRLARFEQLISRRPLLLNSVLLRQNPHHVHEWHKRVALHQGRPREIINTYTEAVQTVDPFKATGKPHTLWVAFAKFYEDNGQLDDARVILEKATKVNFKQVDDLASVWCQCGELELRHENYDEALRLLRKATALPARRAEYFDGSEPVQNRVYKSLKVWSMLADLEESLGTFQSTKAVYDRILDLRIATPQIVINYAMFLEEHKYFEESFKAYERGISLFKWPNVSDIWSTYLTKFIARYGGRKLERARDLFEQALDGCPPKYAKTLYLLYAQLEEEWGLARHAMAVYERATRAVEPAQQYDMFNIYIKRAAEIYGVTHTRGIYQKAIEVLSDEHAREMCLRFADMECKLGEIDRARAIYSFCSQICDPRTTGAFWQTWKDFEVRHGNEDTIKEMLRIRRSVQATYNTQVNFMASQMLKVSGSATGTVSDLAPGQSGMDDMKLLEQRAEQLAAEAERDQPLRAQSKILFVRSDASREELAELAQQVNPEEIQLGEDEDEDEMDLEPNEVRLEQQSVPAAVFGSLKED
Sequence of UniProt O15164 (O15164 whole entry): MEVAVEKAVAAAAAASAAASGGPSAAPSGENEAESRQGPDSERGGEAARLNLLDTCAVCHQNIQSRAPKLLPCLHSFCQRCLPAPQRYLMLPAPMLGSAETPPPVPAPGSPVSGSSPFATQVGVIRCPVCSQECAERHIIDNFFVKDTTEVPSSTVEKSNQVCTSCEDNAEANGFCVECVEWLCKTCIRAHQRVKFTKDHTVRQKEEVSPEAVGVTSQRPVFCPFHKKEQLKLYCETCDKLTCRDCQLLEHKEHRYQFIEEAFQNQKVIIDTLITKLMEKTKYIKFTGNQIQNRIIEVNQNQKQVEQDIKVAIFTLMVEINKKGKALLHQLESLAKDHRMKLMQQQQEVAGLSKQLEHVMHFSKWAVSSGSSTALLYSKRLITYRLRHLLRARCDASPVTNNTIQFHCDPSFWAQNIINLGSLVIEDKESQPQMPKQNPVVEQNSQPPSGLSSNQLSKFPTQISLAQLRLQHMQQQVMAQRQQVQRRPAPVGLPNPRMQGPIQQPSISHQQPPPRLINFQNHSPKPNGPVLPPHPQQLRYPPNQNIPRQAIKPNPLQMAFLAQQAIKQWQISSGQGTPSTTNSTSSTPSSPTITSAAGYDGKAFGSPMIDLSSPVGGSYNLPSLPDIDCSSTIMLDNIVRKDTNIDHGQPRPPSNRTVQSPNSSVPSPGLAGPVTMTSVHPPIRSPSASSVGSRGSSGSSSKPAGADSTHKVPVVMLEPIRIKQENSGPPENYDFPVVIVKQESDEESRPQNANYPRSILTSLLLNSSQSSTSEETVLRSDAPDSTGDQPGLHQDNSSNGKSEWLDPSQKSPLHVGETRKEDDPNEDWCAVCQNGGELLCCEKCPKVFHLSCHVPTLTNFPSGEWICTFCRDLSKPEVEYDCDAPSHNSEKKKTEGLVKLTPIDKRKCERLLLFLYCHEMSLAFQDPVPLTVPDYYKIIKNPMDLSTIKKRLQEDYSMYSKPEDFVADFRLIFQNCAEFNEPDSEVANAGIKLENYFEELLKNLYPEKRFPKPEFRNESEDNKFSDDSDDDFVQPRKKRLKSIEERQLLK
Sequence of UniProt O75928 (O75928 whole entry): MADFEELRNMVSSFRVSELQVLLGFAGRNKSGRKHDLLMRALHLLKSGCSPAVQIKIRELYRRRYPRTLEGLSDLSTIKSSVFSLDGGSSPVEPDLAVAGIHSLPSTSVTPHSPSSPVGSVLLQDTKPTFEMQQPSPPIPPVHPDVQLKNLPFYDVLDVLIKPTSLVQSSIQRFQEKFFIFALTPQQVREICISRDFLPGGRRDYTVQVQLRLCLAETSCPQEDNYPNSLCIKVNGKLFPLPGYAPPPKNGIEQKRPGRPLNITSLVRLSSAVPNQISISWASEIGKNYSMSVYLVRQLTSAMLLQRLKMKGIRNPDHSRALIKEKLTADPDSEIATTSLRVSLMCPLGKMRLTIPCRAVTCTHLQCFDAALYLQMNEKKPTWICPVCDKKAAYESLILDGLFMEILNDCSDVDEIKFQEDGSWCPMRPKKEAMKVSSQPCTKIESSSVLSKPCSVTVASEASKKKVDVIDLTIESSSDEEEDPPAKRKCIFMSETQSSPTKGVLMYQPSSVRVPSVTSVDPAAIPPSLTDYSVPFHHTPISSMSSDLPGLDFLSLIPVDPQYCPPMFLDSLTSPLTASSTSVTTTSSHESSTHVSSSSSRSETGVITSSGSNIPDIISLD
Sequence of UniProt Q8WXI9 (Q8WXI9 whole entry): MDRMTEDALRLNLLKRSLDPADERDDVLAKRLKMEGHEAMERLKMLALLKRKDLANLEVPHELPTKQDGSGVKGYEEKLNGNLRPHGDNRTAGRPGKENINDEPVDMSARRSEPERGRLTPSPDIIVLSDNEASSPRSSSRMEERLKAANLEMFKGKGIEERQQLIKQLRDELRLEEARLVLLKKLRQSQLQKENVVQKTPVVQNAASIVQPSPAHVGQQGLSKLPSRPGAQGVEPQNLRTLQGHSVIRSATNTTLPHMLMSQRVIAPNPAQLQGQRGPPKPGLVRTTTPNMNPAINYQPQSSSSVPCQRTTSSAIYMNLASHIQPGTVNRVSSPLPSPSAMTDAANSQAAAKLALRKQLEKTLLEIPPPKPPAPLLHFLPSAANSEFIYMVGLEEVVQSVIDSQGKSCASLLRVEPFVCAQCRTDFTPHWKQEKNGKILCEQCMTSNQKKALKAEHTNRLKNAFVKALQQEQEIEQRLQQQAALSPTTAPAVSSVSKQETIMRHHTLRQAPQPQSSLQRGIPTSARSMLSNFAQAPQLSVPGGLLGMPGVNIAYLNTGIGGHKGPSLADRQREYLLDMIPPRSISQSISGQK
Sequence of UniProt Q9UPN9 (Q9UPN9 whole entry): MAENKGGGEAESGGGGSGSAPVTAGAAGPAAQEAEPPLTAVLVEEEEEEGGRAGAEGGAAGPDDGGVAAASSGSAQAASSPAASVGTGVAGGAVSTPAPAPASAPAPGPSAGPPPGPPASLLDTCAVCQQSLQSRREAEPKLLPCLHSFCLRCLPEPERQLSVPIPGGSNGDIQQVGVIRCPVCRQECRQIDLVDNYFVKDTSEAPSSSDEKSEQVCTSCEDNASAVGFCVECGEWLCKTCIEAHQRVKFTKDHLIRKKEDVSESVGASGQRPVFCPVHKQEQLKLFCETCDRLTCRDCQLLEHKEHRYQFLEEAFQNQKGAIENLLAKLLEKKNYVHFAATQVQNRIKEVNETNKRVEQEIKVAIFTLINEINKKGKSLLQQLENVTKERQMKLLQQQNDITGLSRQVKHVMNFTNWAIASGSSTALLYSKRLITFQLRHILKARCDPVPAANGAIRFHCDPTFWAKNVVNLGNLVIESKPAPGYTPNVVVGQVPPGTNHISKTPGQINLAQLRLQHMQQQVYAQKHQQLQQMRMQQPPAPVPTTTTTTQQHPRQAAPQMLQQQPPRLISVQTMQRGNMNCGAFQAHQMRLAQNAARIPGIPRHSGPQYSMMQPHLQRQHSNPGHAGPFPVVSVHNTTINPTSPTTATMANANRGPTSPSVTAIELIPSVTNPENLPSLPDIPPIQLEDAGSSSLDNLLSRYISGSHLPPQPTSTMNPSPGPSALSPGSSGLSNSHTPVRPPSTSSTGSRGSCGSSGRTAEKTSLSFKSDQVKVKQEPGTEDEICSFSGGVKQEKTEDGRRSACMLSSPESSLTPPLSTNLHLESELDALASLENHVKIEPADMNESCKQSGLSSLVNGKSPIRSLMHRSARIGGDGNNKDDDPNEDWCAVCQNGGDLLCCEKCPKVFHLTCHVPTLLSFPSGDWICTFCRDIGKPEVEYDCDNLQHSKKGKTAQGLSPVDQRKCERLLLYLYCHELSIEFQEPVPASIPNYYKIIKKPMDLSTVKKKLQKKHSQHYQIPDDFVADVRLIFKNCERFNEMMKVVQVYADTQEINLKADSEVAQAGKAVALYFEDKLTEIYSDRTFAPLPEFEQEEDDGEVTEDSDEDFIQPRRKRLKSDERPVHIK

On to “FLTbID-PML^WT (from UniProt P29590-12) 3MAS (K65; K160; K490 and SIM; replacement residues not printed)”, for which the other: Log2 LFQ ratio (TurboID-PML WT / TurboID-PML 3MAS) in assay [1] came to 3.4 Log2 LFQ; in assay [2] it was 2.3 Log2 LFQ; in assay [3] it was 0.1 Log2 LFQ; in [4], 2.9 Log2 LFQ; in assay [5], 0.55 Log2 LFQ; in assay [6] it was 1.8 Log2 LFQ. For the same substance, the other: Log2 LFQ ratio (TurboID-PML WT / TurboID-PML 3MAS) in assay [7] stood at 5.4 Log2 LFQ; in assay [8], 1.4 Log2 LFQ; in assay [9], 3.4 Log2 LFQ; in assay [10], 2.3 Log2 LFQ; in assay [11], 5.9 Log2 LFQ; in [12] it was 3.5 Log2 LFQ. Moreover, the other: Log2 LFQ ratio (TurboID-PML WT / TurboID-PML 3MAS) turned out to be 3.6 Log2 LFQ in [13]; 0.15 Log2 LFQ in [14]; 4.5 Log2 LFQ in [15]; 3.7 Log2 LFQ in assay [16]; 3.5 Log2 LFQ in assay [17]; 4.8 Log2 LFQ in assay [18]. Besides, the other: Log2 LFQ ratio (TurboID-PML WT / TurboID-PML 3MAS) in assay [19] was 0.58 Log2 LFQ.

The values are drawn from publication PMC8602451.
